# Source: US20240109958
# Target: Ub vinyl sulfone HA-tagged probe (Ub-VS-HA; Cat #U-212, Boston Biochem), P0CG48
# Sequence (P0CG48 whole entry, looked up): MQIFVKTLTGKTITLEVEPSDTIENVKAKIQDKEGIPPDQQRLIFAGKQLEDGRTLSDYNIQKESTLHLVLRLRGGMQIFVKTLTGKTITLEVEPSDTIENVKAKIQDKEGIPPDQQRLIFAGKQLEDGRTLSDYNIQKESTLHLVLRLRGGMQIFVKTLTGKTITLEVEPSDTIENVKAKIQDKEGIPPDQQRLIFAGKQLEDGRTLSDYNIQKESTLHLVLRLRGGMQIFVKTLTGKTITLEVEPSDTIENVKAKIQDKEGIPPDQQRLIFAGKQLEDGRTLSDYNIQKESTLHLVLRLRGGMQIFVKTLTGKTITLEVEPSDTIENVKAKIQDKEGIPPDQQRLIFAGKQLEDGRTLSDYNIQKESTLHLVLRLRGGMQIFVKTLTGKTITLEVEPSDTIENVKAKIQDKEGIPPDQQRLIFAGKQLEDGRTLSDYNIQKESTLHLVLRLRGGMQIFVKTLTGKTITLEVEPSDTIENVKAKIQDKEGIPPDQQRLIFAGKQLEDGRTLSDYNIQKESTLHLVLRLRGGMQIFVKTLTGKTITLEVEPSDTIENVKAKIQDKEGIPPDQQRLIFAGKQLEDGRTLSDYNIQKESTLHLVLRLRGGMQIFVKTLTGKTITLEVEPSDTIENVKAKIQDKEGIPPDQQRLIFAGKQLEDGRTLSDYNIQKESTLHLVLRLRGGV
row,Protein,modification by the suicide probe Ub-VS (immunoblot)
1,"wild-type UCHL1 (UCHL1^WT), C-terminal 6-His tag (protein) MQLKPMEINPEMLNKVLSRLGVAGQWRFVDVLGLEEESLGSVPAPACALLLLFPLTAQHENFRKKQIEELKGQEVSPKVYFMKQTIGNSCGTIGLIHAVANNQDKLGFEDGSVLKQFLSETEKMSPEDRAKCFEKNEAIQAAHDAVAQEGQCRVDDKVNFHFILFNNVDGHLYELDGRMPFPVNHGASSEDTLLKDAAKVCREFTEREQGEVRFSAVALCHHHHHH","UCHL1^WT readily reacted with Ub-VS, nearing completion after 30 minutes"
2,"wild-type UCHL5 (UCHL5^WT), C-terminal 6-His tag (protein) MTGNAGEWCLMESDPGVFTELIKGFGCRGAQVEEIWSLEPENFEKLKPVHGLIFLFKWQPGEEPAGSVVQDSRLDTIFFAKQVINNACATQAIVSVLLNCTHQDVHLGETLSEFKEFSQSFDAAMKGLALSNSDVIRQVHNSFARQQMFEFDTKTSAKEEDAFHFVSYVPVNGRLYELDGLREGPIDLGACNQDDWISAVRPVIEKRIQKYSEGEIRFNLMAIVSDRKMIYEQKIAELQRQLAEEEPMDTDQGNSMLSAIQSEVAKNQMLIEEEVQKLKRYKIENIRRKHNYLPFIMELLKTLAEHQQLIPLVEKAKEKQNAKKAQETKHHHHHH",UCHL5^WT was only partially modified at 30 minutes
